This assay concerns the target CMV gB ectodomain protein (human cytomegalovirus) (UniProt P13201).

B1: TRL345 (antibody, V domains shown)
VH: QVQLVESGGGVVQPGRSLRLSCAASGFTFSDYNMHWVRQAPGKGLEWVAVISIDGTYKYSADSVAGRFSLSRDNSKNTLYLQMNSLRPDDTAIYYCARDGRSVGGFSGILDPWGQGTLVTVSS
VL: EIVMTQSPATLSLSPGDRATLSCRASQSVGSYLAWYQQKPGQAPRLLMYDSSVRATGIPARFSGSGSGTDFTLTISSLEPEDFAVYYCQQRNNWPPLTFGGGTKVEIK
B1: the neutralization of CMV strain AD169rUL131-GFP on ARPE epithelial cells, IC50 came to 0.3 µg/mL; the neutralization of CMV strain AD169rUL131-GFP on MRC-5 fibroblasts, IC50 came to 0.24 µg/mL; the neutralization of CMV strain Toledo on MRC-5 fibroblasts, IC50 is 0.19 µg/mL; the neutralization of CMV strain Towne on MRC-5 fibroblasts, IC50 worked out at 0.21 µg/mL.
